Test results taken from ChEMBL document CHEMBL3526061, “Glucuronidation of edaravone by human liver and kidney microsomes: biphasic kinetics and identification of UGT1A9 as the major UDP-glucuronosyltransferase isoform” (Drug Metab Dispos, 2012).

Columns and labels:
[1] = substrate: CC1=NN(c2ccccc2)C(=O)C1; assay: Activity of human recombinant UGT2B7 expressed in insect cells assessed as enzyme mediated glucuronidation by LC-MS/MS method; format: ADME
[2] = substrate: CC1=NN(c2ccccc2)C(=O)C1; assay: Activity of human recombinant UGT1A6 expressed in insect cells assessed as enzyme mediated glucuronidation by LC-MS/MS method; format: ADME
[3] = substrate: CC1=NN(c2ccccc2)C(=O)C1; assay: Activity of human recombinant UGT2B17 expressed in insect cells assessed as enzyme mediated glucuronidation by LC-MS/MS method; format: ADME
[4] = substrate: CC1=NN(c2ccccc2)C(=O)C1; assay: Activity of human recombinant UGT1A7 expressed in insect cells assessed as enzyme mediated glucuronidation by LC-MS/MS method; format: ADME
[5] = substrate: COc1c(C)c2c(c(O)c1C/C=C(\C)CCC(=O)O)C(=O)OC2; assay: Activity of human recombinant UGT1A9 expressed in insect cells assessed as enzyme mediated glucuronidation by LC-MS/MS method; format: ADME
not read = substrate: CC(C)c1cccc(C(C)C)c1O; assay: not read
[6] = substrate: CC1=NN(c2ccccc2)C(=O)C1; assay: Activity of human recombinant UGT1A1 expressed in insect cells assessed as enzyme mediated glucuronidation by LC-MS/MS method; format: ADME

B1: UDP-glucuronosyltransferase 2B7 (Homo sapiens) (protein)
chain: MSVKWTSVILLIQLSFCFSSGNCGKVLVWAAEYSHWMNIKTILDELIQRGHEVTVLASSASILFDPNNSSALKIEIYPTSLTKTELENFIMQQIKRWSDLPKDTFWLYFSQVQEIMSIFGDITRKFCKDVVSNKKFMKKVQESRFDVIFADAIFPCSELLAELFNIPFVYSLSFSPGYTFEKHSGGFIFPPSYVPVVMSELTDQMTFMERVKNMIYVLYFDFWFEIFDMKKWDQFYSEVLGRPTTLSETMGKADVWLIRNSWNFQFPYPLLPNVDFVGGLHCKPAKPLPKEMEDFVQSSGENGVVVFSLGSMVSNMTEERANVIASALAQIPQKVLWRFDGNKPDTLGLNTRLYKWIPQNDLLGHPKTRAFITHGGANGIYEAIYHGIPMVGIPLFADQPDNIAHMKARGAAVRVDFNTMSSTDLLNALKRVINDPSYKENVMKLSRIQHDQPVKPLDRAVFWIEFVMRHKGAKHLRVAAHDLTWFQYHSLDVIGFLLVCVATVIFIVTKCCLFCFWKFARKAKKGKND
- Km [1]: 2380 µM
- Vmax [1]: 1.77e-06 µmol/min/mg

B2: UDP-glucuronosyltransferase 1A6 (Homo sapiens) (protein)
chain: MACLLRSFQRISAGVFFLALWGMVVGDKLLVVPQDGSHWLSMKDIVEVLSDRGHEIVVVVPEVNLLLKESKYYTRKIYPVPYDQEELKNRYQSFGNNHFAERSFLTAPQTEYRNNMIVIGLYFINCQSLLQDRDTLNFFKESKFDALFTDPALPCGVILAEYLGLPSVYLFRGFPCSLEHTFSRSPDPVSYIPRCYTKFSDHMTFSQRVANFLVNLLEPYLFYCLFSKYEELASAVLKRDVDIITLYQKVSVWLLRYDFVLEYPRPVMPNMVFIGGINCKKRKDLSQEFEAYINASGEHGIVVFSLGSMVSEIPEKKAMAIADALGKIPQTVLWRYTGTRPSNLANNTILVKWLPQNDLLGHPMTRAFITHAGSHGVYESICNGVPMVMMPLFGDQMDNAKRMETKGAGVTLNVLEMTSEDLENALKAVINDKSYKENIMRLSSLHKDRPVEPLDLAVFWVEFVMRHKGAPHLRPAAHDLTWYQYHSLDVIGFLLAVVLTVAFITFKCCAYGYRKCLGKKGRVKKAHKSKTH
- Km [2]: 778 µM
- Vmax [2]: 1.24e-06 µmol/min/mg

B3: UDP-glucuronosyltransferase 2B17 (Homo sapiens) (protein)
chain: MSLKWMSVFLLMQLSCYFSSGSCGKVLVWPTEYSHWINMKTILEELVQRGHEVIVLTSSASILVNASKSSAIKLEVYPTSLTKNDLEDFFMKMFDRWTYSISKNTFWSYFSQLQELCWEYSDYNIKLCEDAVLNKKLMRKLQESKFDVLLADAVNPCGELLAELLNIPFLYSLRFSVGYTVEKNGGGFLFPPSYVPVVMSELSDQMIFMERIKNMIYMLYFDFWFQAYDLKKWDQFYSEVLGRPTTLFETMGKAEMWLIRTYWDFEFPRPFLPNVDFVGGLHCKPAKPLPKEMEEFVQSSGENGIVVFSLGSMISNMSEESANMIASALAQIPQKVLWRFDGKKPNTLGSNTRLYKWLPQNDLLGHPKTKAFITHGGTNGIYEAIYHGIPMVGIPLFADQHDNIAHMKAKGAALSVDIRTMSSRDLLNALKSVINDPIYKENIMKLSRIHHDQPVKPLDRAVFWIEFVMRHKGAKHLRVAAHNLTWIQYHSLDVIAFLLACVATMIFMITKCCLFCFRKLAKTGKKKKRD
- Km [3]: 129 µM
- Vmax [3]: 4.29e-07 µmol/min/mg

B4: UDP-glucuronosyltransferase 1A7 (Homo sapiens) (protein)
chain: MARAGWTGLLPLYVCLLLTCGFAKAGKLLVVPMDGSHWFTMQSVVEKLILRGHEVVVVMPEVSWQLGRSLNCTVKTYSTSYTLEDQDREFMVFADARWTAPLRSAFSLLTSSSNGIFDLFFSNCRSLFNDRKLVEYLKESCFDAVFLDPFDACGLIVAKYFSLPSVVFARGIFCHYLEEGAQCPAPLSYVPRLLLGFSDAMTFKERVWNHIMHLEEHLFCPYFFKNVLEIASEILQTPVTAYDLYSHTSIWLLRTDFVLEYPKPVMPNMIFIGGINCHQGKPVPMEFEAYINASGEHGIVVFSLGSMVSEIPEKKAMAIADALGKIPQTVLWRYTGTRPSNLANNTILVKWLPQNDLLGHPMTRAFITHAGSHGVYESICNGVPMVMMPLFGDQMDNAKRMETKGAGVTLNVLEMTSEDLENALKAVINDKSYKENIMRLSSLHKDRPVEPLDLAVFWVEFVMRHKGAPHLRPAAHDLTWYQYHSLDVIGFLLAVVLTVAFITFKCCAYGYRKCLGKKGRVKKAHKSKTH
- Km [4]: 432 µM
- Vmax [4]: 7.4e-07 µmol/min/mg

B5: UDP-glucuronosyltransferase 1A9 (Homo sapiens) (protein)
chain: MACTGWTSPLPLCVCLLLTCGFAEAGKLLVVPMDGSHWFTMRSVVEKLILRGHEVVVVMPEVSWQLGRSLNCTVKTYSTSYTLEDLDREFKAFAHAQWKAQVRSIYSLLMGSYNDIFDLFFSNCRSLFKDKKLVEYLKESSFDAVFLDPFDNCGLIVAKYFSLPSVVFARGILCHYLEEGAQCPAPLSYVPRILLGFSDAMTFKERVRNHIMHLEEHLLCHRFFKNALEIASEILQTPVTEYDLYSHTSIWLLRTDFVLDYPKPVMPNMIFIGGINCHQGKPLPMEFEAYINASGEHGIVVFSLGSMVSEIPEKKAMAIADALGKIPQTVLWRYTGTRPSNLANNTILVKWLPQNDLLGHPMTRAFITHAGSHGVYESICNGVPMVMMPLFGDQMDNAKRMETKGAGVTLNVLEMTSEDLENALKAVINDKSYKENIMRLSSLHKDRPVEPLDLAVFWVEFVMRHKGAPHLRPAAHDLTWYQYHSLDVIGFLLAVVLTVAFITFKCCAYGYRKCLGKKGRVKKAHKSKTH
- Km [5]: 160 µM
- Km (not read): 41 µM

B6: UDP-glucuronosyltransferase 1A1 (Homo sapiens) (protein)
chain: MAVESQGGRPLVLGLLLCVLGPVVSHAGKILLIPVDGSHWLSMLGAIQQLQQRGHEIVVLAPDASLYIRDGAFYTLKTYPVPFQREDVKESFVSLGHNVFENDSFLQRVIKTYKKIKKDSAMLLSGCSHLLHNKELMASLAESSFDVMLTDPFLPCSPIVAQYLSLPTVFFLHALPCSLEFEATQCPNPFSYVPRPLSSHSDHMTFLQRVKNMLIAFSQNFLCDVVYSPYATLASEFLQREVTVQDLLSSASVWLFRSDFVKDYPRPIMPNMVFVGGINCLHQNPLSQEFEAYINASGEHGIVVFSLGSMVSEIPEKKAMAIADALGKIPQTVLWRYTGTRPSNLANNTILVKWLPQNDLLGHPMTRAFITHAGSHGVYESICNGVPMVMMPLFGDQMDNAKRMETKGAGVTLNVLEMTSEDLENALKAVINDKSYKENIMRLSSLHKDRPVEPLDLAVFWVEFVMRHKGAPHLRPAAHDLTWYQYHSLDVIGFLLAVVLTVAFITFKCCAYGYRKCLGKKGRVKKAHKSKTH
- Km [6]: 285 µM
- Vmax [6]: 4.52e-08 µmol/min/mg
